Experiment: label from the status in PepcDB records
For “HLDASLQEVAEHAFGDYLGGLVALDPNTGGVLALVSKPGFDPNLFVDGIDPETWKSLNESPERPMVNRALRGIYPPGSTIKPLMALAGLELGLREPDDSIDDPGFFRLPNSQHRFRDWKPGGHGIVDLRRSISQSCDIYYYRLAVDMGIDRMHDYLTQFGLGQKTGIDLQGESSGLLPSRAWKQRRWKQPWYPGETVIAGIGQGYHLTTPLQLATMTAMLANGGKRIQPRLVDAVRDPHTRAWQTQAPVMLGEVAIDPENLAVVRQGMMDVTRPGGTAAASAAGAAYGIAGKTGTAQVVGIKQGARYDATRLAREHRDHALFVAYAPAENPVIAVAVMVENGGSGSGTAAPIARAVFDYYLTGKRPGTMKLETDDAAD”, the protein production was “failed”.
In the case of “HPNVTFIIGENGTGKSTLLEGIAIALGFNAEGGTKNFRFSTNDSHSSLHEYLRISKSFNTPSDGFFLRAESFYNVASYIDEIDADLEARGNPVIDSYGGISLHEQSHGESFFSLFMNRFSGQGLYILDEPEAALSPMRQLSMLIRMHELAEQGSQFVIATHSPILMAYPESTIYSLTQEG”, the protein production is reported as “failed”.
In the case of “HRAKIRMEALPEDYERVPGTDMTPEQAYNVSNLDPALQKALDDLSPDFRVAVVLCDVVGMSYDEIADTLGVKMGTVRSRIHRGRSQLRAHLENQATSDEGAQLLLATGR”, the protein production is reported as “failed”.
For “HSHSDKHPVTWQPSKDGDRLIGRILLNKRLKDGSVPRDSGAMLGLKVVGGKMTESGRLCAFITKVKKGSLADTVGHLRPGDEVLEWNGRLLQGATFEEVYNIILESKPEPQVELVVSR”, the protein production was “not failed”.
In the case of “HVSDLDWLMSGLVQRVPHTTSAVLLSCDGLVKSVHGLDPDSADHMAALASGLYSLGRSAGIRFGDGGDVRQVVVELDSTLLFVSTAGSGTCLAVLAGREADAAVLGYEMAMLVKSVRPYLMTAPRQ”, the protein production is reported as “not failed”.
For “HYSPFRSQPVDCVLWVKQELVAPNDYNPNNVAPPEKRLLQTSLEADGFTQPVVVIQQRPQAYTIVDGFHRHELACSKAALKKTLKGYLPVTCLTSEAASRDGLMAATIRHNRARGRHQ”, the protein production was “failed”.
With “IDTVAPDMRIHGFLNAQEFTLYLDTSGEALFKRGLRQTQGEAPLRENLAAGILALTGWQPGTPLLDPMCGSGTLLLEAAQIACRIAPGSGRQFAFEQLKLFDARSWKKLKQTATERQHERTFQSIYGSDLYGSALAHTRNNLAAAGLAECVTLKQANVLEISAPAETGILVSNPPYGVRIGDHQMLAEFYPRLGDVLKQRFSGWRAFLLTADPLLAKSIRLTPSRRTPLFNGALECRLLEYRLVAGSMRREKQPSSESSTNQPIT” the protein production was “failed”.
In the case of “IEVKQLEFPAFKVEIQKWLHFHINWQNDMDYIEKTNHTFYGAYVDNDLKGSICINEQGKISFIFIDKEYRNRGIGSKLLQVARDELNLESLLISFPNNSLLEGFLKKTGFEKNSLAQYEMYVLL”, the protein production is reported as “failed”.
With “IHNSRWIMTPEVKEDCKMRLFCLPFAGGGALAYRSWCRYMPPEIELCAVQLPGRENRIKDEKFYDINLLIDELVLQILPYLDKPFALYGHSMGGLISFELARRIRKVKGLTPKILFFSGSKAPQLYDHTKDISHLPDELFLKAIKSFNGMPDMFWQDRELIEFKLPTLRADFSVLEGYNYYNEEPLECPISALCGENDKIISKKDMEALALQTKNQFKLRMFDGDHFFINTCRSKVLKSIIEDLN” the protein production was “not failed”.
In the case of “IIGNAEAICLPELGITHLEARIDTGAQTSSLHVDNIDCFEKDGQSYVAFDLHPDVYHLEQVVRCTAKLKANRKVKSSNGTFEHRCVITTMLRLGDQEWPIDITLTNREKMTYMMLLGRQGMADKVLVDPSQSH”, the protein production is reported as “failed”.
For “IKHKQLIEQVMIYIEKHLAENITLQDIADELYISRNYLGQIFKKVVGESFKNYVTRLRMEKAKKMIQEGNFLIYEVSEKVGYVNPAYFTTMFKKYTGYTPRDLIQK”, the protein production was “failed”.
With “ILHRDADFLLRALQPDDFVRTSRYENANREHLAPWEPLRDPGYFSVDNARARTLLQVASMDEGEALLLLLLDPDDGEVLGRCSYTNIVRGVFQACHLGFSLAAAAQGRGLMARALRVANRYCFEQLGLHRIMASHLPRNARSERLLESLGFEKEGYARAYLKIAGVWEDHVLR” the protein production was “failed”.
For “ISLAVLAVSIIFLGVTVIQNKKKIDPALKELSSVTQAMQKQIEGLKTETELLTQKQKKIQQDVQIKKYTLQQTAAEVKEVPQAVKEVWQA”, the protein production was “not failed”.
In the case of “ISMIGERTNSNGSKAFREAMLSGDWEKCVDIAKQQTRDGAHMLDLCVDYVGRDGTADMATLAALLATSSTLPIMIDSTEPEVIRTGLEHLGGRSIVNSVNFEDGDGPESRYQRIMKLVKQHGAAVVALTIDEEGQARTAEHKVRIAKRLIDDITGSYGLDIKDIVVDCLTFPISTGQEETRRDGIETIEAIRELKKLYPEIHTTLGLSNISFGLNPAARQVLNSVFLNECIEAGLDSAIAHSSKILPMNRIDDRQREVALDMVYDRRTEDYDPLQEFMQL”, the protein production is reported as “failed”.
For “ITARRRGELRRDALLKMGDQLRSLTTIQDMTGIASEIVGRALGAVRAGFGRVDPGEESVIIENDWSAAGYASLAGWHSLSDHPSFETANATKQPVVVADVAAAPPDNLSSQAKDDPGIGSLAVIPIENHDGSTALFFVHVAEPRDWSDDDLAFLRNVGDRLAAGVGRLDAEALQHTLNLELSHRMKNTLAMVMAIARQTLRSIP”, the protein production was “failed”.
In the case of “ITIRDDILFQSGSAELTAGKREIAKEIGELFAQGKGTMEGIVSGHTDNVPISTSIYSSNWELSVARAVNFMEAIIQENSEVNPGEFSARGYGEFRPVAKNDIAANREKNRRVEIMVRPINRDTLDEDE”, the protein production is reported as “failed”.
In the case of “ITVADQISHWSAGRIKNRTRIPECIHSSAATTLAGPHTMEGESVKLSSQTLIQAGDDEKNQRTITVNPAHMGKAFKVMNELRSKQLLCDVMIVAEDVEIEAHRVVLAACSPYFCAMFTGDMSESKAKKIEIKDVDGQTLSKLIDYIYTAEIEVTEENVQVLLPAASLLQLMDVRQNCCDFLQSQLHPTNCLGIRAFADVHTCTDLLQQANAYAEQHFPEVMLGEEFLSLSLDQVCSLISSDKLTVSSEEKVFEAVISWINYEKETRLEHMAKLMEHVRLPLLPRDYLVQTVEEEALIKNNNTCKDFLIEAMKYHLLPLDQRLLIKNPRTKPRTPVSLPKVMIVVGGQAPKAIRSVECYDFEEDRWDQIAELPSRRCRAGVVFMAGHVYAVGGFNGSLRVRTVDVYDGVKDQWTSIASMQERRSTLGAAVLNDLLYAVGGFDGSTGLASVEAYSYKTNEWFFVAPMNTRRSSVGVGVVEGKLYAVGGYDGASRQCLSTVEQYNPATNEWIYVADMSTRRSGAGVGVLSGQLYATGGHDGPLVRKSVEVYDPGTNTWKQVADMNMCRRNAGVCAVNGLLYVVGGDDGSCNLASVEYYNPVTDKWTLLPTNMSTGRSYAGVAVIHKSL”, the protein production is reported as “not failed”.
In the case of “IVRDSQRHKQLPVDRRKSQMEEVQDELIHRLTIGRSAAQKKFHVPRQNVPVINITYDSTPEDVKTWLQSKGFNPVTVNSLGVLNGAQLFSLNKDELRTVCPEGARVYSQITVQKAALEDSSGSSELQEIMRRRQEKISAAASDSGVESFDEGSSH”, the protein production is reported as “failed”.
In the case of “KASTKLHVGNISPTCTNQELRAKFEEYGPVIECDIVKDYAFVHMERAEDAVEAIRGLDNTEFQGKRMHVQLSTSRLRTA”, the protein production is reported as “not failed”.
In the case of “KERILSSERLAKIMMSELGDKRQEHLIAIYLDTQNRVIKKQVIFIGSVRRSVAEPREILHYACKSMATSLIIVHNHPSGSTYPSENDLRFTEKIKRSCDDLGIVFLDHIIVGKKEYYSFREETDLV”, the protein production is reported as “not failed”.
With “KGSQVKLEVISDEKGAKPRTITLTREQIRLEDRAVKLTEKVINGDKIAILDIPSFYVGLTNDVKTQLQKVAKDNVSALVIDLRGNGGGALTEAIALSGLFIPSGPVVQVRDNNGRVRQDYDRDDVVYYKGPLVVIVNRFSASASEIFAAAMQDYGRALIVGEQTFGKGTVQQYRSLTRVYDQMLSPDWPSLGSVQYTIQKFYRINGGSTQLKGVTPDLLLPSFDNSEMGESNEDNALPW” the protein production was “failed”.
In the case of “KGVVTIEQIVDTLPDRGRSCWHLGAVWALSQFQENELFLGMYPEEHFIEKPVKEAMARFRKNLEAIVSVIAERNKKKQLPYYYLSPDRIPNSVAI”, the protein production is reported as “failed”.
In the case of “KHSSTQQRLSRMLHEDGFVMHYQLLQSVVEKDVISFEALLRYQDREGNLCPPTFISDFQLLNMMPTLDKLVIDKVLTDMQKMDLNEDRRVAINISVASIEEHGFAEHVIDRLKFFSIPPHWLEIEITEEAILSDNHNLLSTLEILKSHGIKIAMDDFGTGYASFPHLLKYPFDKIKLDRSLLLDASTTKGKQLYQLIAQMGDVANCEVVAEGVETEDEFKFVAECGVDKVQGFLIARP”, the protein production is reported as “failed”.
For “KIERDKAERAKKYGGSVGSQPPPVAPEPGPVPSSPSQEPPTKREYDQCRIQVRLPDGTSLTQTFRAREQLAAVRLYVELHRGEELGGGQDPVQLLSGFPRRAFSEADMERPLQELGLVPSAVLIVAKKC”, the protein production was “failed”.
For “KIGYGKANPTTRLWVGGLGPNTSLAALAREFDRFGSIRTIDHVKGDSFAYIQYESLDAAQAACAKMRGFPLGGPDRRLRVDFAK”, the protein production was “not failed”.
With “KKAKKVRFYRNGDRYFKGIVYAISPDRFRSFEALLADLTRTLSDNVNLPQGVRTIYTIDGLKKISSLDQLVEGESYVCGSIEPFKKLEYTKNVNPNWSVNVKT” the protein production was “not failed”.
For “KKLANADANNDSRVYVAVDGDIGVGYATMKVFMLSNDEYKILSGKYPRQVPVVMLDQIAVDKAYQGKGIGKRLMRKVLEATVLVNELAAAKGLALWAHPRAKDFYESLGFEAIPDATKQVQDVELTLMFIHVETILDALK”, the protein production was “failed”.
With “KKLCGYLSKFGGKGPIRGWKSRWFFYDERKCQLYYSRTAQDANPLDSIDLSSAVFDCKADAEEGIFEIKTPSRVITLKAATKQAMLYWLQQLQMKRWEFHNSPPAP” the protein production was “not failed”.
In the case of “KLIGITGMPGSGKSAITKLAEKYKIVVVSMGDVVRYETLKQGMPLNPENVGNTAVKLREIYGKEAIAVPCLNYVNEKYNNEDFVIIEGIRSIYEVNYIKKHAELDIIAIHSSPKTRFERLSGRNREDDSNDWNTFVERDERELNFSIGRVISLADYMVVNEGNYMDFVNDLENTFKKIINV”, the protein production is reported as “failed”.
With “KMLDEKFYSKLLGEELDLIICLPPDFSPLYKYPLFIVQDGKDYFQFGKLARHSEELAVNEQIQKAIFIGIPYKTVMDRREKYHPDGEQNEAYIRFLAFELVPYLEERFPSFQMPTSRFL” the protein production was “not failed”.
In the case of “KNTGSKHNFLNHGLPLNLAIKPYLALKGSVDFPAENGVQNTESTQEKREIGDEENSAKFPIGRRDFDMLRCMLGRVYRPCWQV”, the protein production is reported as “failed”.
In the case of “KNVVHQLSVTLEDLYNGATRKLALQKNVICDKCEGRGGKKGAVECCPNCRGTGMQIRIHQIGPGMVQQIQSVCMECQGHGERISPKDRCKSCNGRKIVREKKILEVHIDKGMKDGQKITFHGEGDQEPGLEPGDIIIVLDQKDHAVFTRRGEDLFMCMDIQLVEALCGFQKPISTLDNRTIVITSHPGQIVKHGDIKCVLNEGMPIYRRPYEKGRLIIEFKVNFPENGFLSPDKLSLLEKLLPERKEVEETDEMDQVELVDFDPNQERRRHYNGEAYEDDEHHPRGGVQCQTS”, the protein production is reported as “failed”.
With “KNYDLSDLPGPPSKPQVTDVTKNSVTLSWQPGTPGTLPASAYIIEAFSQSVSNSWQTVANHVKTTLYTVRGLRPNTIYLFMVRAINPQGLSDPSPMSDPVRTQD” the protein production was “not failed”.
For “KPQEGIGARCRRALKDLPLTNLSRLLQCELAEGKALRWGADSLEPAAVVGLNSLGSLVWAPGQPSRWPVPLLLLGGTLDLITPPLDEQLGVFSALASHPSSRVVVVEGASHFSPIRVGEPMA”, the protein production was “failed”.
